Test results as given in patent publication US20060147922A1, “Novel diagnostic and therapeutic methods and reagents therefor” (priority 2002, published 2006).

Assays:
[1] = biological target: GST fusion of mouse importin β1 (PTAC97) (mouse) (UniProt P70168); assay: GST-importin β pull-down of IVT 35S-EDD, autoradiography
[2] = biological target: GSTchk2-N (GST fused to chk2 aa 1-225) (human) (UniProt O96017); assay: pre-incubation of GSTchk2-N with the peptide, then pull-down of IVT 35S-EDD (competitor of EDD)
GSTchk2-N (GST fused to chk2 aa 1-225) (human), sequence (O96017 1-225): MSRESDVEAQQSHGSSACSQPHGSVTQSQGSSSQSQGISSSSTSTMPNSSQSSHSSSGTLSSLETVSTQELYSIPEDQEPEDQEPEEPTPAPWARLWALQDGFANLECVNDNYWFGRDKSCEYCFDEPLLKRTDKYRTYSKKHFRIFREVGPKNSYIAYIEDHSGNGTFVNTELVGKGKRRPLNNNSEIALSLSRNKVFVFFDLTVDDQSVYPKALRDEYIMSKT

GST fusion of mouse importin β1 (PTAC97) (mouse), sequence (P70168 whole entry, the tested form may be a part): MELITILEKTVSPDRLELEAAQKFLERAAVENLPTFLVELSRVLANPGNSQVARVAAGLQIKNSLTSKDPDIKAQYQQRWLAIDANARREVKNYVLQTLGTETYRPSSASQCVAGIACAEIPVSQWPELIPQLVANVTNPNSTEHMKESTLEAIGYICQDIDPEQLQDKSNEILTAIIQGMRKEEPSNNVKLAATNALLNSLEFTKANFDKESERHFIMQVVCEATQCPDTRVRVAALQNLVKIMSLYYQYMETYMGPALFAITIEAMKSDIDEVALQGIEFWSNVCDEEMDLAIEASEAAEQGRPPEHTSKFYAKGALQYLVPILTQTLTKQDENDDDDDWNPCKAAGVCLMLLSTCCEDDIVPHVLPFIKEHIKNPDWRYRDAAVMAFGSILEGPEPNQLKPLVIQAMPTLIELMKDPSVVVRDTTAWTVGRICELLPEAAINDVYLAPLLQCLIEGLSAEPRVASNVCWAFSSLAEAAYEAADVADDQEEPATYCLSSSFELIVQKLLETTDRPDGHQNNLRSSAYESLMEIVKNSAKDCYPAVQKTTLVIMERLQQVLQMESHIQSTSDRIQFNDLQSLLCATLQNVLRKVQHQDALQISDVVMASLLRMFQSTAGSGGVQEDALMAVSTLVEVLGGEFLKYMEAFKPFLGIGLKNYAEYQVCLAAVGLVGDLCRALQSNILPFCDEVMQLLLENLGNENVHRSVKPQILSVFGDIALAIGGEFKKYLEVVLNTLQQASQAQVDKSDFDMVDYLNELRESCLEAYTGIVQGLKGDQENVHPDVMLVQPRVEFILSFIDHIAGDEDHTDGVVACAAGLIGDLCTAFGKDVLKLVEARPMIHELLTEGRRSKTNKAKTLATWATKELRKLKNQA

percent of the available EDD protein pulled down [1] [%]	peptide concentration that abolished binding of EDD to chk2-N [2] [µM]	Substance
5		EDD protein, full length (aa 1-2799) (from UniProt O95071 1-2799)
	> 50	FHA-binding phosphopeptide RWFDT(P)YLIRR
